The values below come from patent publication US20230279368A1 (NORTH CAROLINA STATE UNIVERSITY, published 2023).

Series [1] deals with the molecule itself. As to the kind of experiment: size exclusion chromatography and SAXS, self-association (homodimer). As to the method:
Size Exclusion Chromatography. To determine molecular mass, NTA purified samples were subjected to size exclusion chromatography (Superdex 200 10/300 GL, GE Healthcare) equilibrated with SEC buffer (100 mM Tris pH7.5, 200 mM sodium chloride). The protein sample equilibrated in SEC buffer was applied to the column. The mass of BHT₍₂₃₋₅₉₄₎-HIS was calculated based on the standards in the high molecular weight gel calibration kit (Cytiva Life Sciences*).
Small angle X-ray scattering: Data Collection and Analysis. rBHT₍₂₃₋₅₉₄₎-HIS samples at 1 mg/ml and 4 mg/ml 5 mM in sodium phosphate buffer at pH 5 were measured on a Rigaku Bio-SAXS 2000. The instrument uses Cu Kα radiation (λ=1.54 Å) and was collimated to provide a sufficient Q-range of 0.01-0.67 Å⁻¹. Measurements were performed at ambient temperature. Samples were measured for a total of 40 min in 5 min scans. Data were corrected for transmission and sample background. […]
The dimer conformation was further validated in solution by small X-ray scattering (SAXS) (FIG. 7A). […] Molecular mass were calculated using the method described by Rambo and Tamer. The molecular mass determined from SAXS (˜169 KDa) confirmed that BHT forms a dimer in solution Table 3. […] The Rg and Dₘₐₓ of the 6M4F crystallographic dimer (molecule A and molecule C) calculated using Crysol are 34 Å and 110 Å, respectively. […]

Series [2] concerns the molecule itself. Nature of the series: size exclusion chromatography, self-association (homodimer); data not shown. In general terms: Size exclusion chromatography separates by hydrodynamic size, large species first.

B1: rBHT(23-594)-HIS (enzyme)
chain: VTYPGAIPLSLTSNYETPSPTAIPLEPTPTATGTAELDALWNLVEAQYPVQTAAVTTLVTVPDDYKFEADPPSYALAGYETSEIAGLKFPKGFKFGVAGAAIQVEGAAKAEGRGPSTWDYLCHHYASTQCNNYDPDITTNHYYLYPLDFARLQHLGINTYSFSISWTRIYPLGAGYVNEAGLAHYDAVIHSAKKYGLEPVGTVFHWDTPLSLMLKYGAWQDTGDQIVKDFVTYATTVFKRYGNEVKTWFTFNEPRVFCSQNSGLPYNLTYPEGINSTSAVFRCTYNVLKAHGHAVKVYRDLVASGTIAAGEIGFKSDDNYPIPARPGNADDEESAKRHEAFRIGIFAQPVYGNGDYPDVVKETVGDMLPALTDEDKGYIKGSGDIFAIDGYRTDISHAALNGIANCIRNQSDPNWPVCEEGSDPFAHVYPSGFAIGQSADPLSSWLVNSAPFIRDQLKFLTQTYPAKGGIYFSEFGWAEDAEYDRQLLYQITWDGLRTQYLTDYLSQLLLAVHKDGINLRGALTWSFVDNWEWGLGMQQKFGFQFVNQSDPDLTRTFKLSAHAYAQFGRNHLHHHHHH
modifications: N-glycosylated at N289, N297, N431 and N569 (numbering of full-length BHT, SEQ ID NO: 1), expressed in K. pastoris
notes: the entries describe its self-association into a homodimer
For the protein B1, the binding result in series [1] is recorded as “binds”.

B2: rBHT(57-594)-HIS (enzyme)
chain: AELDALWNLVEAQYPVQTAAVTTLVTVPDDYKFEADPPSYALAGYETSEIAGLKFPKGFKFGVAGAAIQVEGAAKAEGRGPSTWDYLCHHYASTQCNNYDPDITTNHYYLYPLDFARLQHLGINTYSFSISWTRIYPLGAGYVNEAGLAHYDAVIHSAKKYGLEPVGTVFHWDTPLSLMLKYGAWQDTGDQIVKDFVTYATTVFKRYGNEVKTWFTFNEPRVFCSQNSGLPYNLTYPEGINSTSAVFRCTYNVLKAHGHAVKVYRDLVASGTIAAGEIGFKSDDNYPIPARPGNADDEESAKRHEAFRIGIFAQPVYGNGDYPDVVKETVGDMLPALTDEDKGYIKGSGDIFAIDGYRTDISHAALNGIANCIRNQSDPNWPVCEEGSDPFAHVYPSGFAIGQSADPLSSWLVNSAPFIRDQLKFLTQTYPAKGGIYFSEFGWAEDAEYDRQLLYQITWDGLRTQYLTDYLSQLLLAVHKDGINLRGALTWSFVDNWEWGLGMQQKFGFQFVNQSDPDLTRTFKLSAHAYAQFGRNHLHHHHHH
notes: the entry describes its self-association into a dimer
Regarding B2, the binding result in series [2] was “binds”.

B3: rBHT(32-594)-HIS (enzyme)
chain: SLTSNYETPSPTAIPLEPTPTATGTAELDALWNLVEAQYPVQTAAVTTLVTVPDDYKFEADPPSYALAGYETSEIAGLKFPKGFKFGVAGAAIQVEGAAKAEGRGPSTWDYLCHHYASTQCNNYDPDITTNHYYLYPLDFARLQHLGINTYSFSISWTRIYPLGAGYVNEAGLAHYDAVIHSAKKYGLEPVGTVFHWDTPLSLMLKYGAWQDTGDQIVKDFVTYATTVFKRYGNEVKTWFTFNEPRVFCSQNSGLPYNLTYPEGINSTSAVFRCTYNVLKAHGHAVKVYRDLVASGTIAAGEIGFKSDDNYPIPARPGNADDEESAKRHEAFRIGIFAQPVYGNGDYPDVVKETVGDMLPALTDEDKGYIKGSGDIFAIDGYRTDISHAALNGIANCIRNQSDPNWPVCEEGSDPFAHVYPSGFAIGQSADPLSSWLVNSAPFIRDQLKFLTQTYPAKGGIYFSEFGWAEDAEYDRQLLYQITWDGLRTQYLTDYLSQLLLAVHKDGINLRGALTWSFVDNWEWGLGMQQKFGFQFVNQSDPDLTRTFKLSAHAYAQFGRNHLHHHHHH
notes: as for B2
With B3, the binding result in series [2] is “binds”.

B4: rBHT(54-594)-HIS (enzyme)
chain: TGTAELDALWNLVEAQYPVQTAAVTTLVTVPDDYKFEADPPSYALAGYETSEIAGLKFPKGFKFGVAGAAIQVEGAAKAEGRGPSTWDYLCHHYASTQCNNYDPDITTNHYYLYPLDFARLQHLGINTYSFSISWTRIYPLGAGYVNEAGLAHYDAVIHSAKKYGLEPVGTVFHWDTPLSLMLKYGAWQDTGDQIVKDFVTYATTVFKRYGNEVKTWFTFNEPRVFCSQNSGLPYNLTYPEGINSTSAVFRCTYNVLKAHGHAVKVYRDLVASGTIAAGEIGFKSDDNYPIPARPGNADDEESAKRHEAFRIGIFAQPVYGNGDYPDVVKETVGDMLPALTDEDKGYIKGSGDIFAIDGYRTDISHAALNGIANCIRNQSDPNWPVCEEGSDPFAHVYPSGFAIGQSADPLSSWLVNSAPFIRDQLKFLTQTYPAKGGIYFSEFGWAEDAEYDRQLLYQITWDGLRTQYLTDYLSQLLLAVHKDGINLRGALTWSFVDNWEWGLGMQQKFGFQFVNQSDPDLTRTFKLSAHAYAQFGRNHLHHHHHH
notes: as for B2
Regarding B4, in series [2], the binding result is “binds”.
